Measured values reported in patent US20130177579A1 (BIOALLIANCE C V, published 2013).
Blank lines part the entries; values can stand above or below the binder they belong to.

Columns and labels:
[1] = target: T1, human transferrin receptor expressed by normal human cells (RBC, PMN, lymphocytes, monocytes, platelets, … (human, UniProt P02786 1-760)); test: FACS, PMN, donor D102, 1x
T1 construct: The assay is whole-cell FACS on normal donor cells; also called TfR on normal cells
Protocol: (§1) Preparation of PBMC and PMN: The whole blood was diluted with an equal volume of PBS and mixed with 1/10 volume of 15% Dextran solution. […] After centrifugation at 2200 rpm for 15 min (rotor: SORVALL, PN11788 and centrifuge: SORVALL, RT7), PBMC concentrated in the interface, were collected and washed with large volumes of FACS buffer (2% FBS in PBS) for future use. The PMN-rich pellet was collected, from which residual RBC was removed by hypotonic lysis in 0.2% NaCl.
(§2) 1×10⁵ cells were seeded in each well of a v-bottomed 96-well plate and incubated with 50 μl of hybridoma culture supernatant at 1× and 10× dilution, or isotype control antibody mouse IgM, κ (BD™, Cat. No. 557275) at concentration of 1 μg/ml. A 300× dilution of human cell hyper-immune serum was used as binding positive control for all cell types. PE-conjugated anti-human CD41a (Southern Biotech™, Cat. No. 9391-09) was used as a positive control for staining human platelets. Anti-sialyl Lewis x antibody (Millipore™, Cat. No. MAB2096) was used as a positive control for staining human PMN. Anti-human CD31 (Hycult™, Cat. No. HM2039) was used as a positive control for staining HUVEC. After 30 minutes incubation at 4° C., cells were washed twice with 200 μl FACS buffer (1×PBS containing 1% FBS), stained with 50 μl of 1 μg/ml goat F(ab′)2-anti-mouse IgG(H+L)-PE (Southern Biotech™, Cat. No. 1032-09) or 1 μg/ml goat F(ab′)2-anti-mouse IgM(H+L)-PE (Southern Biotech™, Cat. No. 1022-09) in FACS buffer. After 30 minutes of incubation at 4° C., cells were washed twice with FACS buffer and analyzed by flow cytometry (BD LSR, BD Life Sciences).

[2] = target: T1, human transferrin receptor expressed by …; test: FACS, platelets, donor D102, 1x
Protocol: (§3) The hyper-immuned serum (Hyp-serum) or the corresponding cell marker antibodies for certain cell types were included as positive controls.
as §2

[3] = target: T1, human transferrin receptor expressed by …; test: FACS, platelets, donor D005, 1/10x
Protocol: as §3, §2

[4] = target: human transferrin receptor expressed by nonhematopoietic cancer cells (human) (UniProt P02786); test: FACS, OMC-3 cells, 1/5X
human transferrin receptor expressed by nonhematopoietic cancer cells (human), sequence (P02786 whole entry G142S): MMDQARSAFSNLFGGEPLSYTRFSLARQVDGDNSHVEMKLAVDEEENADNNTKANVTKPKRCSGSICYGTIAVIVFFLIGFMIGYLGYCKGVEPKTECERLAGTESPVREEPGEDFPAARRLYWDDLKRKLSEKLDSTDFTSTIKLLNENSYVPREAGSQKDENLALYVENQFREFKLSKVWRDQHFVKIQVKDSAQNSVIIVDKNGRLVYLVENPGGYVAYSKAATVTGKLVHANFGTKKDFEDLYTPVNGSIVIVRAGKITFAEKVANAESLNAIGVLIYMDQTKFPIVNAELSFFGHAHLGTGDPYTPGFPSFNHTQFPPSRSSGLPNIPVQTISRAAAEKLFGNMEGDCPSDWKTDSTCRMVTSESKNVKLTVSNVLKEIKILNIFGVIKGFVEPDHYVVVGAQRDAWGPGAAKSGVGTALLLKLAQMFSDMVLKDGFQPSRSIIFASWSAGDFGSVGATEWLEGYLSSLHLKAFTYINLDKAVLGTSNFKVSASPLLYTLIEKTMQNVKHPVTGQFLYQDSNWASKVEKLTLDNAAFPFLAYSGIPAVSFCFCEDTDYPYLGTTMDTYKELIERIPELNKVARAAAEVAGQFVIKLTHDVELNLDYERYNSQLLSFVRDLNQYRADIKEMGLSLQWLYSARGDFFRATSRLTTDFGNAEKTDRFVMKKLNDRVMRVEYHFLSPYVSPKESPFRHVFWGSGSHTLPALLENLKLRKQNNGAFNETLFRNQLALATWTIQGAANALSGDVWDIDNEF

[5] = target: T1, human transferrin receptor expressed by …; test: FACS, monocytes, donor D102, 1x
Protocol: as §1, §2

[6] = target: T1, human transferrin receptor expressed by …; test: FACS, RBC, donor D014, 1/10x
Protocol: as §3, §2

[7] = target: T1, human transferrin receptor expressed by …; test: FACS, PMN, donor D016, 1x
Protocol: as §1, §2

[8] = target: T1, human transferrin receptor expressed by …; test: FACS, monocytes, donor D014, 1/10x
Protocol: as §1, §2

[9] = target: human transferrin receptor expressed by nonhematopoietic cancer cells (human) (UniProt P02786); test: FACS, DLD-1 cells, 1/5X
[10] = target: T1, human transferrin receptor expressed by …; test: FACS, HUVEC, 1/10x
Protocol: as §3, §2

[11] = target: T1, human transferrin receptor expressed by …; test: FACS, PMN, donor D016, 1/10x
Protocol: as §1, §2

[12] = target: human transferrin receptor expressed by nonhematopoietic cancer cells (human) (UniProt P02786); test: FACS, HEC-1-A cells, 1/5X
[13] = target: T1, human transferrin receptor expressed by …; test: FACS, monocytes, donor D005, 1x
Protocol: as §1, §2

[14] = target: human transferrin receptor expressed by nonhematopoietic cancer cells (human) (UniProt P02786); test: FACS, Panc02.03B cells, 1/5X
[15] = target: human transferrin receptor expressed by nonhematopoietic cancer cells (human) (UniProt P02786); test: FACS, H358 cells, 1/10X
[16] = target: human transferrin receptor expressed by nonhematopoietic cancer cells (human) (UniProt P02786); test: FACS, MDA-MB-453 cells, 1/5X
[17] = target: human transferrin receptor expressed by nonhematopoietic cancer cells (human) (UniProt P02786); test: FACS, Kato III cells, 1/5X
[18] = target: T1, human transferrin receptor expressed by …; test: FACS, platelets, donor D014, 1/10x
Protocol: as §3, §2

[19] = target: T1, human transferrin receptor expressed by …; test: FACS, lymphocytes, donor D014, 1x
Protocol: as §1, §2

[20] = target: T1, human transferrin receptor expressed by …; test: FACS, lymphocytes, donor D005, 1/10x
Protocol: as §1, §2

[21] = target: T1, human transferrin receptor expressed by …; test: FACS, PMN, donor D005, 1/10x
Protocol: as §1, §2

T1 sequence (P02786 whole entry G142S): as above

% positive cell binding [1]: 1% | % positive cell binding [2]: < 1% | % positive cell binding [3]: < 1% | MFI [4]: 179 MFI | % positive cell binding [5]: 3% | % positive cell binding [6]: 1% | % positive cell binding [7]: < 1% | % positive cell binding [8]: < 1% | MFI [9]: 104 MFI | % positive cell binding [10]: 3% | % positive cell binding [11]: < 1% | MFI [12]: 1240 MFI | % positive cell binding [13]: 4% | MFI [14]: 314 MFI | MFI [15]: 295 MFI | MFI [16]: 65 MFI | MFI [17]: 97 MFI | % positive cell binding [18]: < 1% | % positive cell binding [19]: 1% | % positive cell binding [20]: 2% | % positive cell binding [21]: 1%
B1: antibody 55-31 (antibody, mouse IgM, V domains shown)
VH: QVQLQQPGAELVKPGTSVKLSCKASGYNFTSYWINWVKLRPGQGLEWIGDIYPGSGSTNYNEKFKSKATLTVDTSSSTAYMQLSSLASEDSALYYCARSAYRYDWFAYWGQGTLVTVSA
VL: DIQMTQSPASLSVSVGETVTITCRASENIYSNLAWYQQKQGKSPQLLVYAATNLADGVPSRFSGSGSGTQYSLKINSLQSEDFGSYYCQHFWGTPYTFGGGTKLEIKR
notes: Mouse IgM, kappa from a hybridoma; tested as hybridoma culture supernatant

% positive cell binding [1]: 1% | % positive cell binding [2]: < 1% | % positive cell binding [3]: < 1% | MFI [4]: 3040 MFI | % positive cell binding [5]: 1% | % positive cell binding [6]: 1% | % positive cell binding [7]: < 1% | % positive cell binding [8]: 1% | MFI [9]: 2690 MFI | % positive cell binding [10]: 1% | % positive cell binding [11]: 1% | MFI [12]: 15 MFI | % positive cell binding [13]: 2% | MFI [14]: 4670 MFI | MFI [15]: 2460 MFI | MFI [16]: 16 MFI | MFI [17]: 724 MFI | % positive cell binding [18]: < 1% | % positive cell binding [19]: < 1% | % positive cell binding [20]: 1% | % positive cell binding [21]: < 1%
B2: antibody 122-72 (antibody, V domains shown)
VH: EVQLVESGGGLVQPKGSLKLSCAASGFTFNTYAMNWVRQAPGKGLEWVARIRSKSNNYATYYADSVKDRFTISRDDSQSMLYLQMNNLKTEDTAMYYCVAYGSRNYWGQGTTLTVSS
VL: DIVMTQSPSSLTVTAGEKVTMSCKSSQSLLNSGNQKNYLTWYQQKPGQPPKLLIYWASTRESGVPDRFTGSGSGTDFTLTISSVQAEDLAVYYCQNDYSYPYTFGGGTKLEIKR
notes: Mouse IgM, kappa from a hybridoma; tested as hybridoma culture supernatant; Antibody 60-43 is said to have the same CDRs

% positive cell binding [1]: 1% | % positive cell binding [2]: < 1% | % positive cell binding [3]: < 1% | MFI [4]: 2150 MFI | % positive cell binding [5]: 2% | % positive cell binding [6]: < 1% | % positive cell binding [7]: 1% | % positive cell binding [8]: < 1% | MFI [9]: 3900 MFI | % positive cell binding [10]: 1% | % positive cell binding [11]: < 1% | MFI [12]: 11 MFI | % positive cell binding [13]: 2% | MFI [14]: 4910 MFI | MFI [15]: 1600 MFI | MFI [16]: 141 MFI | MFI [17]: 1250 MFI | % positive cell binding [18]: < 1% | % positive cell binding [19]: 1% | % positive cell binding [20]: 3% | % positive cell binding [21]: < 1%
B3: antibody 6-90 (antibody, mouse IgM, V domains shown)
VH: EVELQQFGIEMVKPGASVKISCKASGYIFTDYHMDWVRQSHGKSLEWIGDIDPKYDRVTYNQKFKGKASLTADKSSSTAYMELRSLTSEDTAVYYCAKTGAYGDYLAYWGQGTLVTVSA
VL: DLVMTQTPLSLPVSLGDQASISCRSSQSLVHSDGNTYFYWYLQKPGQSPKLLIYKVSNRFSGVPDRFSAGGSGTYFTLKISRVEAEDLGVYFCSQTTHFPPTFGGGTKLEIKR
notes: as for B1
